According to US20190367626A1:

Assays:
[1] = biological target: TRAILshort (UniProt P50591); experiment: flow cytometry of 293T cells transfected with WT TRAILshort, isotype control staining
[2] = biological target: P76A TRAILshort; experiment: flow cytometry of 293T cells transfected with P76A TRAILshort, isotype control staining

Chain of TRAILshort (P50591 other isoform, or with tags, fused parts or gaps): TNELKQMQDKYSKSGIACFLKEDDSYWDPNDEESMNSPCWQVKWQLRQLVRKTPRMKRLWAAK

percent of cells in the gate [1]: 3.2% | percent of cells in the gate [2]: 2.2%
Substance: C555 labeled anti-Ig3 Isotype control (antibody)
